In PMC9482650, “Quantitative fragmentomics allow affinity mapping of interactomes” (Nature Communications, 2022):

Legend:
Experiment in all cases: holdup assay
Set-up in all cases: key: below the threshold = too weak to quantify, mostly under pKd 3.1 to 4
Conditions in all cases: plain residues with an end cap or a label only (N-terminal biotin on a linker: ttds)
DVL2, O14641 = molecular target: DVL2, O14641
IL16_2, Q14005 = molecular target: IL16_2, Q14005
MAGI3_4, Q5TCQ9 = molecular target: MAGI3_4, Q5TCQ9
Chain of MAGI3_4, Q5TCQ9 (Q5TCQ9 716-815): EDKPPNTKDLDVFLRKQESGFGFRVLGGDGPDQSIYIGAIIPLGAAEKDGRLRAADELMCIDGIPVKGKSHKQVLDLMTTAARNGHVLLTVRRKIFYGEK

MAGIX, Q9H6Y5 = molecular target: MAGIX, Q9H6Y5
Chain of MAGIX, Q9H6Y5 (Q9H6Y5 118-211): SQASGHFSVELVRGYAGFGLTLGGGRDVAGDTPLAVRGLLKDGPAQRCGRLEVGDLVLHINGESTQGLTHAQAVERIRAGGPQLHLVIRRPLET

MAST3, O60307 = molecular target: MAST3, O60307
Chain of MAST3, O60307 (O60307 945-1048): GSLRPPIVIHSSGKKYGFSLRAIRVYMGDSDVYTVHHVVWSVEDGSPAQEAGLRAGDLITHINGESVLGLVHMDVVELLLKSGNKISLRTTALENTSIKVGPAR

MPDZ_3, O75970 = molecular target: T1, MPDZ_3, O75970
T1 sequence (O75970 372-473, limits assumed, looked up): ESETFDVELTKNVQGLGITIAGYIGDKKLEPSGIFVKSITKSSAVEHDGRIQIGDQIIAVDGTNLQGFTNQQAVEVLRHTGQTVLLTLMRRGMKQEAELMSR

MPP1, Q00013 = molecular target: T2, MPP1, Q00013
T2 sequence (Q00013 66-162, limits assumed, looked up): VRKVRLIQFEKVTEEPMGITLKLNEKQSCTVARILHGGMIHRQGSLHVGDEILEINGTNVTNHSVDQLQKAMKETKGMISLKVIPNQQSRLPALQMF

NHERF2_1, Q15599 = molecular target: NHERF2_1, Q15599
Chain of NHERF2_1, Q15599 (Q15599 9-91): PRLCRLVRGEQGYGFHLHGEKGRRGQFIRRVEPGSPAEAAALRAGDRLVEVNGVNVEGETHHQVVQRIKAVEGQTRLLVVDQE

NHERF3_2, Q5T2W1 = molecular target: T3, NHERF3_2, Q5T2W1
T3 sequence (Q5T2W1 129-225, limits assumed, looked up): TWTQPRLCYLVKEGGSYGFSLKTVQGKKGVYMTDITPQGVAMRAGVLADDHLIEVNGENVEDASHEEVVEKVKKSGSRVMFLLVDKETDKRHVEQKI

NHERF4_3, Q86UT5 = molecular target: NHERF4_3, Q86UT5
Chain of NHERF4_3, Q86UT5 (Q86UT5 325-412): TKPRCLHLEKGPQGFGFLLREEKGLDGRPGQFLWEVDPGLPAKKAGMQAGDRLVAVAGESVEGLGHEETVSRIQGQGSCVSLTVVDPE

PARD3B_2, Q8TEW8 = molecular target: PARD3B_2, Q8TEW8
Chain of PARD3B_2, Q8TEW8 (Q8TEW8 376-471): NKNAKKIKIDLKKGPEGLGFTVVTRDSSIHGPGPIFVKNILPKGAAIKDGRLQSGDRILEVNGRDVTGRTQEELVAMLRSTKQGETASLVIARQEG

PDZD2_1, O15018 = molecular target: T4, PDZD2_1, O15018
T4 sequence (O15018 80-192, limits assumed, looked up): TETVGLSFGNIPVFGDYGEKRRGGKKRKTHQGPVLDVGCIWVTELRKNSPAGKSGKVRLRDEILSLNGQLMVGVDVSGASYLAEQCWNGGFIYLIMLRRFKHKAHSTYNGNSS

PDZD2_5, O15018 = molecular target: T5, PDZD2_5, O15018
T5 sequence (O15018 2617-2716, limits assumed, looked up): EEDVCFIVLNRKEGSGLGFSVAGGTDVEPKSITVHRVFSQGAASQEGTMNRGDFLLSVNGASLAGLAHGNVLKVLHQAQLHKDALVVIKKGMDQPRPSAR

PDZD7_1, Q9H5P4 = molecular target: T6, PDZD7_1, Q9H5P4
T6 sequence (Q9H5P4 81-178, limits assumed, looked up): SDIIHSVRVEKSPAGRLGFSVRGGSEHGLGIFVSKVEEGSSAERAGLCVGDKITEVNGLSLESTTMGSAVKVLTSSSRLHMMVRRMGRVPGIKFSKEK

PDZD8, Q8NEN9 = molecular target: T7, PDZD8, Q8NEN9
T7 sequence (Q8NEN9 361-459, limits assumed, looked up): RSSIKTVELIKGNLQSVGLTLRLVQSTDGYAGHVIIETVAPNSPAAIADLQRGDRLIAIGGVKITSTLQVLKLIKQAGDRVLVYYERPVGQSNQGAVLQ

PDZRN3_2, Q9UPQ7 = molecular target: T8, PDZRN3_2, Q9UPQ7
T8 sequence (Q9UPQ7 414-513, limits assumed, looked up): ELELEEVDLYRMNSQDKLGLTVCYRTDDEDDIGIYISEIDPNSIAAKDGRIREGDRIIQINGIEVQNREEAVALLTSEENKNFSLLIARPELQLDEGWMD

PTPN13_2, Q12923 = molecular target: PTPN13_2, Q12923
Chain of PTPN13_2, Q12923 (Q12923 1363-1462): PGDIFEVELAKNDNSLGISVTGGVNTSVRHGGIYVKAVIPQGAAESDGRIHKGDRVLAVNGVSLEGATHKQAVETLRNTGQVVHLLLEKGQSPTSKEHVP

PTPN13_5, Q12923 = molecular target: T9, PTPN13_5, Q12923
T9 sequence (Q12923 1877-1975, limits assumed, looked up): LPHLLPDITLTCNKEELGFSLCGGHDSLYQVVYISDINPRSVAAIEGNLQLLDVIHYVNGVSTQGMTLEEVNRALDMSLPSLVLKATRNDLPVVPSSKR

PTPN4, P29074 = molecular target: T10, PTPN4, P29074
T10 sequence (P29074 512-599, limits assumed, looked up): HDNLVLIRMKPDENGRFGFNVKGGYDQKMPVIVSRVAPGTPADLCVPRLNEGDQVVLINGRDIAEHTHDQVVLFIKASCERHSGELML

RGS3, P49796-9 = molecular target: RGS3, P49796-9
Chain of RGS3, P49796-9 (P49796 other isoform, or with tags, fused parts or gaps): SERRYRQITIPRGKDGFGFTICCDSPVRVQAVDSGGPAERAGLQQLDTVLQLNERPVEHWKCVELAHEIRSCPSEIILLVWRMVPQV

RIMS1, Q86UR5 = molecular target: RIMS1, Q86UR5
Chain of RIMS1, Q86UR5 (Q86UR5 584-692): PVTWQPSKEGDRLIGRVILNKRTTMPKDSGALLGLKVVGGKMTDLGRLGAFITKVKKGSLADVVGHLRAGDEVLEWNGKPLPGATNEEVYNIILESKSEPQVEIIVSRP

SHROOM2, Q13796 = molecular target: T11, SHROOM2, Q13796
T11 sequence (Q13796 21-118, limits assumed, looked up): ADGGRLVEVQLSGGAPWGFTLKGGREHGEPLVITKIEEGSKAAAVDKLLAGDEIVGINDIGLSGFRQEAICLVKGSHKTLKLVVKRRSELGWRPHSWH

TJP3_1, O95049 = molecular target: T12, TJP3_1, O95049
T12 sequence (O95049 6-103, limits assumed, looked up): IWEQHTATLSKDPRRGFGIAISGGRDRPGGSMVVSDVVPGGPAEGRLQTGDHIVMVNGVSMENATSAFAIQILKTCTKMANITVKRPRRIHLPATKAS

USH1C_1, Q9Y6N9 = molecular target: T13, USH1C_1, Q9Y6N9
T13 sequence (Q9Y6N9 82-179, limits assumed, looked up): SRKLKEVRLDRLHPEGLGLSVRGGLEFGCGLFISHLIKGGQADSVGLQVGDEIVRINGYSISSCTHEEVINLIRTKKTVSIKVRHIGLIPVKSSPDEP

Chain of DVL2, O14641 (O14641 260-359): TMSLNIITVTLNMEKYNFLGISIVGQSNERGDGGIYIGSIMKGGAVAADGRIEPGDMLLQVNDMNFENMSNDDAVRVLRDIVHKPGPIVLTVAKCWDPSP
Chain of IL16_2, Q14005 (Q14005 350-450): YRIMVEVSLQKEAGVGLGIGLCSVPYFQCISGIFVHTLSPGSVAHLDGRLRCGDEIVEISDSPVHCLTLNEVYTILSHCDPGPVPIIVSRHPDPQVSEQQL

| Binder | pKd (DVL2, O14641) | pKd (IL16_2, Q14005) | pKd (MAGI3_4, Q5TCQ9) | pKd (MAGIX, Q9H6Y5) | pKd (MAST3, O60307) | pKd (MPDZ_3, O75970) | pKd (MPP1, Q00013) | pKd (NHERF2_1, Q15599) | pKd (NHERF3_2, Q5T2W1) | pKd (NHERF4_3, Q86UT5) | pKd (PARD3B_2, Q8TEW8) | pKd (PDZD2_1, O15018) | pKd (PDZD2_5, O15018) | pKd (PDZD7_1, Q9H5P4) | pKd (PDZD8, Q8NEN9) | pKd (PDZRN3_2, Q9UPQ7) | pKd (PTPN13_2, Q12923) | pKd (PTPN13_5, Q12923) | pKd (PTPN4, P29074) | pKd (RGS3, P49796-9) | further results |
| --- | --- | --- | --- | --- | --- | --- | --- | --- | --- | --- | --- | --- | --- | --- | --- | --- | --- | --- | --- | --- | --- |
| SEKHFRETEV [HTLV1-TAX1, P03409] | below the threshold | below the threshold | 3.79 | below the threshold | below the threshold | 3.92 | below the threshold | 3.95 | below the threshold | 3.83 | 3.97 | below the threshold | 4.16 | 3.85 | below the threshold | below the threshold | below the threshold | below the threshold | 4.77 | below the threshold | pKd (RIMS1, Q86UR5): below the threshold; pKd (SHROOM2, Q13796): below the threshold; pKd (TJP3_1, O95049): below the threshold; pKd (USH1C_1, Q9Y6N9): below the threshold |
| HIVEALETDV [PBK, Q96KB5] | 5.15 | below the threshold | below the threshold | below the threshold | below the threshold | below the threshold | below the threshold | below the threshold | below the threshold | below the threshold | below the threshold | below the threshold | below the threshold | below the threshold | below the threshold | below the threshold | below the threshold | below the threshold | below the threshold | below the threshold | pKd (RIMS1, Q86UR5): below the threshold; pKd (SHROOM2, Q13796): below the threshold; pKd (TJP3_1, O95049): below the threshold; pKd (USH1C_1, Q9Y6N9): below the threshold |
| MERLRVETDV [ARHGEF16, Q5VV41] | below the threshold | below the threshold | below the threshold | below the threshold | below the threshold | below the threshold | 4.56 | below the threshold | below the threshold | below the threshold | below the threshold | below the threshold | below the threshold | below the threshold | below the threshold | below the threshold | below the threshold | below the threshold | 4.25 | below the threshold | pKd (RIMS1, Q86UR5): below the threshold; pKd (SHROOM2, Q13796): below the threshold; pKd (TJP3_1, O95049): below the threshold; pKd (USH1C_1, Q9Y6N9): below the threshold |
| IQREDQETAV [DGKZ, Q13574] | 4.5 | below the threshold | below the threshold | below the threshold | below the threshold | below the threshold | below the threshold | below the threshold | below the threshold | below the threshold | below the threshold | below the threshold | below the threshold | below the threshold | below the threshold | below the threshold | below the threshold | below the threshold | 4.8 | below the threshold | pKd (RIMS1, Q86UR5): below the threshold; pKd (SHROOM2, Q13796): below the threshold; pKd (TJP3_1, O95049): below the threshold; pKd (USH1C_1, Q9Y6N9): below the threshold |
